The supplement of paper PMC9170038

System: MS2 coat protein
Assay: apparent KD of MS2 coat protein; higher = weaker reporter binding
Conditions: Eterna round: R107
Protocol: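 RNA-MaP round R107: designed RNA switches with theophylline, tryptophan, arginine or FMN aptamers are transcribed on-chip within common flanks. They are titrated with SNAP-549-labelled MS2 coat protein in RNA-MaP buffer (100 mM Tris pH 7.5, 80 mM KCl, 4 mM MgCl2), without ligand or with the indicated ligand. Median apparent KD per design.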

[1] = input ligand: theophylline 20 uM
[2] = input ligand: theophylline 2 mM
[3] = input ligand: tryptophan 2.4 mM

Row | Sequence | apparent KD of MS2 coat protein (input ligand: arginine 13.2 mM) [µM] | apparent KD of MS2 coat protein [1] [µM] | apparent KD of MS2 coat protein [2] [µM] | apparent KD of MS2 coat protein (input ligand: none) [µM] | apparent KD of MS2 coat protein [3] [µM]
1 | GGUUACUCUACGGCCGCCACUGUAAUGUAAAGAUUCCUGUACAUGACAUGAGGAUCACCCAUGUGCAGGACCGGGUAGUGUAACC [Tryptophan B 20] | 0.126 | 0.208 | 0.225 | – | –
2 | UUCAGCUAGUCGGCCGCCACUACAUGAGCAUCAGCCAUGUUCCUAAAACACUGCUUCGGCAGUGGUAGGACCGGGACUAGCUGAG | 0.0104 | 0.012 | 0.0126 | 0.011 | 0.0259
3 | GAACAUGAGGAUCACCCAUGUAAAACAGAUACCAGUGAUAUAAUACACCCUUGGCAGCUGUAGCUGAAUAAUAAUUCCCUCAAGC [#19 SameState-TheophyllineA] | 0.017 | 0.0218 | – | – | 0.0169
4 | AUUAAAGUUUAUAAGGAAAUUGAAACAGAAGGAGCGUGAGUAAUCACAGGUAGGUCGCUGGUAGUACAUGAGGAUCACCCAUGUU [JR_Nu_SSArginiA_Sub020] | 0.0222 | 0.0306 | 0.0242 | 0.0201 | 0.0213
5 | UUUUUCAUAGGUUAUAGUUAAGAAACUGAAGGAGCGUGGUAAUACACAGGUAGGUCGCAGAUUUUACAUGAGGAUCACCCAUGUU [JR_SSArginiA_Sub009] | 0.0278 | 0.0319 | 0.0215 | 0.0349 | 0.0364
6 | UACCGAUGAAGAAGGAGCGUACGUGGUUCACAUGAGGAUCACCCAUGUGCUUAUUGCUAGGUACAGGUAGGUCGCUUCAUCGGUA [SSAB NP+V+V2 #21] | 0.0165 | 0.021 | 0.0171 | 0.0155 | 0.0158
7 | CCUCGACAUGAGGAUCACCCAUGUAGAGAUACCAGCCUGUGAGAUGGCCCUUGGCAGCUCAUAUAGGGUACAGGAGUCGUUUUGA [Qugetila] | 0.0235 | 0.0632 | – | – | 0.0239
8 | UGGUCACUAGGAGAUACCAGCCGACAUGAGGAUCACCCAUGUAACCGGCGUCCUCCCUUAGGCCCUUGGCAGCUCGUAGUUGCUC [Vebice] | 0.0119 | 0.0225 | – | – | 0.0126
9 | CACGCGGUGUCGGCCGCCACUGACGCCCGUGGGUCUCCUGACAUGAGGAUCACCCAUGUACAGCGCAGGACCGGGACACCAACAA [Are] | 0.022 | 0.059 | 0.0642 | 0.0494 | 0.0293
10 | UUAUUUAACGGAAGGAGCGCGGAAAUUAAAGUGGGUAAACAUGAGGAUCACCCAUGUAAACCGCAGGUAGGUCGCCGAUAUUUAU [#22 Exclusion - Arginine B] | 0.043 | 0.0673 | 0.0821 | 0.0845 | 0.0719
11 | AAGACAUGAGGAUCACCCAUGUCGACAAAACGAGGACCGGUACGGCCGCCACUCGAAAGCAAAUGAGCGCAUGCGGCCUGGGUAU [Exclusion Tryp A GF2] | 0.0101 | 0.0141 | 0.012 | 0.0119 | 0.0127
12 | AACGUAUACAGAAGGAGCGUGAAUUAUAUUACUCAUUCAUAUACAUGAGGAUCACCCAUGUCACAGGUAGGUCGCUGUAUUCGUA [JR_ExcArginiB_Sub020] | 0.0559 | 0.092 | 0.0869 | 0.0822 | 0.0654
13 | AGUCUUAGUGGAAGGAGCGCAGUCAUAACAUGAGGAUCACCCAUGUCGAGGUGAGGGUCAUUGCAGGUAGGUCGCCAUAAUAGGA [#16 Same State - Arginine B] | 0.0193 | 0.355 | 0.322 | 0.156 | 0.369
14 | CUCUGAGUGAGGAAUCACUCAGAGGCGGAUACCAGCGAGGUCCAUCGCCCUUGGCAGCCGAACAUGAGGAUCACCCAUGUCGGUA [#1 Same State - Theophylline A Attempt #23 (HarryS)] | 0.00944 | 0.0121 | 0.0135 | 0.00945 | 0.0093
15 | UGAUACACGGGAAGGAGCGACAGGGAUAAGUCCGCACGGGCCGCACAUGAGGAUCACCCAUGUCAGGUAGGUCGCCCGUGGCGUG [Erxemarima] | 0.013 | 0.0196 | 0.016 | 0.0135 | 0.0129
16 | GCAUCCUAGUCGGCCGCCACUGCAUGUAGGCAGUGCUGCUACAAACAUGAGGAUCACCCAUGUAGCAGGACCGGGACUAGGAUGC [(Trp1)-(MT2)''-(T1)'-(MT2)'-(Ms2)-(Trp2)_Design2] | 0.013 | 0.0185 | 0.0156 | – | –
17 | CGCGGACCACCUGAUACCAGCGCAGUCAUGCAUGAACCCAACAUGAGGAUCACCCAUGUACGCCCUUGGCAGCAGGGAAAAGUCG [theeternabot_exclusion_MS2_Theo_B_8] | 0.0764 | 0.223 | – | – | 0.163
18 | AGGGACAUGAGGAUCACCCAUGUUGAAACUCGAGGACCGGUACGGCCGCCACUCGUAUAAUCGAUGUCCAUUUGGGAUUCCGGCU [theeternabot_sameState_MS2_Trp_A_17] | 0.0214 | 0.0328 | 0.0391 | – | –
19 | AGUUGACAAAAGUCAGCAACAUGAUCCGAAGGAGCGGGCGAAAGCCCAGGUAGGUCGCGGACAUGAGGAUCACCCAUGUCUCCUU [ArgAX 3 #OpenEnded #Sliding] | 0.0466 | 0.0706 | 0.1 | 0.0743 | 0.0639
20 | ACGUCCGGGUUAAUCGUGGGCAUGGUCGAUACCAGUAUUUUAAUCUACCCUUGGCAGCGACAUGAGGAUCACCCAUGUGCGAUGA [XTheo A #17] | 0.0155 | 0.0228 | – | – | 0.017
21 | UUCUACGGCGAUCUGGGUUUACCAGAUCGACGAGGACCGGUACGGCCGCCACUCGUGUUUCUUUAACAUGAGGAUCACCCAUGUA [#11 Tryptophan A Same State] | 0.053 | 0.0787 | 0.0661 | – | –
22 | UGUAUGUGAUCUGAUACCAGAGUGACGCGAAAGCGAAACCUGAGGAUCACCCUGGUAAAACUCCCUUGGCAGCAGAUCGCAUACU | 0.076 | 0.0353 | 0.0239 | 0.0495 | 0.0683
23 | UUCAAAGGGAACGGUGCUGGUAACAGAGAUACCAGAGUAAUAAUACUCCCUUGGCAGCUCAUAACAUGAGGAUCACCCAUGUAAU [Exclusion Theophylline A GF21] | 0.0124 | 0.0174 | – | – | 0.0135
24 | AGCACGGUGAUGGUAGCCGGACGCUAAGUACGAGGACCGGUACGGCCGCCACUCGGAGUCCUACGACAUGAGGAUCACCCAUGUA [Same State Trp A GF12] | 0.0343 | 0.05 | 0.0426 | 0.0349 | 0.0336
25 | ACACGAGGAUCACCCGUGUCAUGUGGUGAUACCAGUUUACAUGAGAACCCUUGGCAGCAUAACAACAUGAGGAUCACCCAUGUCA [Same State - Theophylline A #1] | 0.0244 | 0.0404 | – | – | 0.035
26 | GCUAGUGGCAGAAGGAGCGGCAUACAUGCAAGUGACAUGAGGAUCACCCAUGUAAGGGAAUGCCAGGUAGGUCGCUGCCACUAGC [EAB NP+V+V2 #2 +-Same Structure] | 0.0362 | 0.0896 | 0.0892 | 0.0615 | 0.0642
27 | GAGCUGAUGUAGAAAUUUUAUUUCUGAGAUACCAGUACAGAAAUGUACCCUUGGCAGCUCAGUUUUACAUGAGGAUCACCCAUGU [Ex Theophylline A 15] | 0.0148 | 0.0156 | – | – | 0.0131
